How the values were obtained:
gH of HCMV strain TB40/E = gH of HCMV strain TB40/E (human cytomegalovirus strain TB40/E); test: cell-based or functional assay
[1] = target: T1, UL128 expressed from MVA in BHK-21 cells (human cytomegalovirus, UniProt P16837 28-171); test: intracellular FC, MVA-infected BHK-21
T1 construct: whole, on cells
T1 sequence: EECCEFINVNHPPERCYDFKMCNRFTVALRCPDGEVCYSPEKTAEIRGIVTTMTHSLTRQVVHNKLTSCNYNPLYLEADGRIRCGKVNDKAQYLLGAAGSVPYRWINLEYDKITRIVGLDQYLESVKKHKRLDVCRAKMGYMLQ
Description: (§1) NAb subunit specificity was evaluated by staining BHK-21 cells infected with different MVA recombinants. One or more vectors were used to co-infect BHK-21 at an MOI of 5. […] Four hours post infection cells were fixed and permeabilized using Cytofix/Cytoperm solution (BD Biosciences). NAbs (1 mg/ml) were diluted 1:500 in perm/wash buffer (BD) and added to the cells for 1 hour at 4° C. […] Cells were washed again and resuspended in PBS/0.1% BSA. Fifteen thousand events were collected using the Gallios Flow Cytometer (Beckman Coulter, Miami, Fla., USA) and analyzed with FlowJo Software (Tree Star, Ashland, Oreg., USA). Uninfected cells and cells infected with MVA-Venus were used as controls. GFP expression was analyzed for confirming MVA infection since all the constructs contain a GFP expression cassette (36, 62).
(§2) In order to determine the antigen specificity of the vaccine-derived NAbs, intracellular flow cytometry (FC) staining of permeabilized BHK-21 cells infected with MVA expressing single subunits or combinations of two or more subunits of the PC was evaluated.

[2] = target: T2, UL130 expressed from MVA in BHK-21 cells (human cytomegalovirus, UniProt P16772 1-214); test: intracellular FC, MVA-infected BHK-21
T2 construct: whole, on cells
Description: as §1, §2

[3] = target: T3, UL131A expressed from MVA in BHK-21 cells (human cytomegalovirus, UniProt F5HET4 19-129); test: intracellular FC, MVA-infected BHK-21
T3 construct: whole, on cells
Description: as §1, §2

[4] = target: T4, UL128/UL130 co-expressed from MVA in BHK-21 cells (human cytomegalovirus, UniProt P16837 28-171; P16772 1-214); test: intracellular FC, MVA-infected BHK-21
T4 construct: whole, on cells
Description: as §1, §2

[5] = target: T5, UL128/UL131A co-expressed from MVA in BHK-21 cells (human cytomegalovirus, UniProt P16837 28-171; F5HET4 19-129); test: intracellular FC, MVA-infected BHK-21
T5 construct: whole, on cells
Description: as §1, §2

[6] = target: T6, UL130/UL131A co-expressed from MVA in BHK-21 cells (human cytomegalovirus, UniProt P16772 1-214; F5HET4 19-129); test: intracellular FC, MVA-infected BHK-21
T6 construct: whole, on cells
Description: as §1, §2

[7] = target: T7, UL128/UL130/UL131A co-expressed from MVA in BHK-21 cells (human cytomegalovirus, UniProt P16837 28-171; P16772 1-214; F5HET4 19-129); test: intracellular FC, MVA-infected BHK-21
T7 construct: whole, on cells
Description: as §1, §2

gH of HCMV strain Towne = target: T8, gH of HCMV strain Towne (human cytomegalovirus strain Towne, UniProt P17176 30-742); test: immunoblot, lysates of HCMV-infected MRC-5
T8 sequence: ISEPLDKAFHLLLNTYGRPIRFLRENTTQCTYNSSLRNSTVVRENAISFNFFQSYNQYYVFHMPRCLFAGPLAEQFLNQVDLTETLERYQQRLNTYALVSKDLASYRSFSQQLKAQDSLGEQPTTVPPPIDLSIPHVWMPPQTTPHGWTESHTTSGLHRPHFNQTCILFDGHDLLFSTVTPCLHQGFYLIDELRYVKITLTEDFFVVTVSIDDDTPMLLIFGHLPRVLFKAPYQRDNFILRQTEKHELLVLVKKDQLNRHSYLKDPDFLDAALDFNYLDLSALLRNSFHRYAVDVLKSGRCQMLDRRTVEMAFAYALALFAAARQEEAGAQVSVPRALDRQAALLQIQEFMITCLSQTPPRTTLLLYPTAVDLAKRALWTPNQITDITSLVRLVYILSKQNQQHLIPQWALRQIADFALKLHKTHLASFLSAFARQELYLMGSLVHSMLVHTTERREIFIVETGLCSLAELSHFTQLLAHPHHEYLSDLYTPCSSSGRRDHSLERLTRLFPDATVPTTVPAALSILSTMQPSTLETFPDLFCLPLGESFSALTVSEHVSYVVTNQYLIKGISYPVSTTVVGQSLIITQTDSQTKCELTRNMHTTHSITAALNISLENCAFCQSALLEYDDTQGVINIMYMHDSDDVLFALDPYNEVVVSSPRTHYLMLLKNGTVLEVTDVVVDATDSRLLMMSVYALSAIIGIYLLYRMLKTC

[8] = target: T9, gH/gL/UL128/UL130/UL131A pentamer complex expressed from MVA-PC in BHK-21 cells (human cytomegalovirus, UniProt P12824 24-743; P16832 31-278; P16837 28-171; P16772 1-214; F5HET4 19-129); test: FC competition, MVA-PC BHK-21; unlabelled row Ab; competitor: biotinylated 13B5
T9 construct: whole, on cells

[9] = target: T9, gH/gL/UL128/UL130/UL131A pentamer …; test: FC competition, MVA-PC BHK-21; unlabelled row Ab; competitor: biotinylated 2-80; note: test concentration or dose not given here
[10] = target: T9, gH/gL/UL128/UL130/UL131A pentamer …; test: FC competition, MVA-PC BHK-21; unlabelled row Ab; competitor: biotinylated 21E9; note: test concentration or dose not given here
[11] = target: T9, gH/gL/UL128/UL130/UL131A pentamer …; test: FC competition, MVA-PC BHK-21; unlabelled row Ab; competitor: biotinylated 21F6
[12] = target: T9, gH/gL/UL128/UL130/UL131A pentamer …; test: FC competition, MVA-PC BHK-21; unlabelled row Ab; competitor: biotinylated 18F10
[13] = target: T9, gH/gL/UL128/UL130/UL131A pentamer …; test: FC competition, MVA-PC BHK-21; unlabelled row Ab; competitor: biotinylated 62-11; note: test concentration or dose not given here

B1: 18F10 (antibody, V domains shown)
VH: QVTLKESGPGILQPSQTLSLTCSFSGFSLSTYGIGIGWIRQPSGKGLEWLAHIWWNDNKNYNTALKSRLTISKDPSNNQVFLKIASVDTADTATYFCARTGYFDVWGAGTTVTVSS
VL: DVVLTQTPLSLPVSLGDQVSISCSSSQSLVHSNGNTYIHWYLQKPGQSPKLLIYTVSNRFSGVPDRFSGSGSGTDFTLKISRVEAEDLGLYFCSQSTHVPYTFGGGTKLEIK
notes: also called NAb 18F10
IC50, inhibition of TB40/E cell-to-cell spread in ARPE-19 (gH of HCMV strain TB40/E): 95 mg/L
IC50, neutralization of TB40/E infection of ARPE-19 (gH of HCMV strain TB40/E): 0.763 mg/L
IC50, neutralization of TB40/E infection of CTB (gH of HCMV strain TB40/E): 8.8 mg/L
IC50, neutralization of TB40/E infection of HUVEC (gH of HCMV strain TB40/E): 1.49 mg/L
IC50, neutralization of TB40/E infection of MRC-5 (gH of HCMV strain TB40/E): > 25 mg/L
binding result [1]: no binding
binding result [2]: no binding
binding result [3]: no binding
binding result [4]: no binding
binding result [5]: no binding
binding result [6]: no binding
binding result [7]: no binding
binding result (gH of HCMV strain Towne): no binding (tested: 10 µg/ml)
Binding Inhibition (%) [8]: 0%
Binding Inhibition (%) [9]: 0%
Binding Inhibition (%) [10]: 0%
Binding Inhibition (%) [11]: 0%
Binding Inhibition (%) [12]: 100%
Binding Inhibition (%) [13]: 0%
